According to patent US20160130305A1:
pIC50: −log10 of the molar value.

Key:
HLA B*0702 (human) = test: competition with radiolabeled probe peptide on purified HLA
HLA DRB1*0101 (human) = test: competition with radiolabeled probe peptide, purified MHC

Substance: NS4B2296-2305 (peptide)
- pIC50 (HLA B*0702 (human)): < 6.00

Substance: NS52967-2981 (peptide; other documents disagree on this pair)
- pIC50 (HLA DRB1*0101 (human)): 7.32
